Results from article doi:10.1101/481754, “Tumor Protein D54 is a promiscuous Rab effector” (bioRxiv, 2018).

Molecular target: T1, MBP-TPD54-His (human, UniProt O43399 1-206)
T1 construct: human Tumor protein D54 (TPD54/TPD52L2) inserted in the pMalPre-His vector; also called recombinant MBP-TPD54-His; source: E. coli BL21, purified (HisTrap); not shown: MBP, N-terminal, kept; His, C-terminal, kept
Experiment: pull-down; 3 µM GST, GST-Rab1a or GST-Rab6a pre-loaded with 300 µM GppNHp, incubated with 3 µM MBP-TPD54-His 90 min at 20 °C in 25 mM HEPES, 150 mM KCl, 5 mM MgCl2 pH 7.4; glutathione-sepharose beads; Coomassie gel
Conditions: both partners purified

T1 sequence (O43399 whole entry): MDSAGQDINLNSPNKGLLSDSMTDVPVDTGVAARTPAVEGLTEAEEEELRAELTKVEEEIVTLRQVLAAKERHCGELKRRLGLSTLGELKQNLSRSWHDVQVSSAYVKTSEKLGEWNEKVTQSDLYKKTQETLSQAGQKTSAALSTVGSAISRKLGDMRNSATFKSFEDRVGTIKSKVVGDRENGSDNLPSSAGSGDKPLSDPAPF

B1: GST-Rab1a (natural protein)
chain: not shown
notes: human Rab1a, cut from GFP-Rab1a and inserted into pGEX-6P1; pre-loaded with GDP or GppNHp; source: E. coli BL21, purified (GSTrap); not shown: GST, N-terminal, kept
binding result: binds
